Molecular target: pre-B cell receptor (pre-BCR) on the surface of live BCP-ALL cells (human) (UniProt P15814)
Assay: single particle tracking with hidden Markov model (Viterbi plot), one receptor pair on 697 cells

pre-B cell receptor (pre-BCR) on the surface of live BCP-ALL cells, sequence (chain): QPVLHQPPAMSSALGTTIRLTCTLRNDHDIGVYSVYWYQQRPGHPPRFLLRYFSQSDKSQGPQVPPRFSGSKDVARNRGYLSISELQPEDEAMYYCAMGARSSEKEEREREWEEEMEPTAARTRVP
pre-B cell receptor (pre-BCR) on the surface of live BCP-ALL cells, sequence (P15814 38-213): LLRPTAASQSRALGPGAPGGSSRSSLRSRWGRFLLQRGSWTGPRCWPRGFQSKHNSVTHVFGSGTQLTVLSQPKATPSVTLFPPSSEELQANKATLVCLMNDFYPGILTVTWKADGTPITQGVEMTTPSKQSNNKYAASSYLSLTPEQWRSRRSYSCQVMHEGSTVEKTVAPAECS
pre-B cell receptor (pre-BCR) on the surface of live BCP-ALL cells, sequence (P11912 33-226): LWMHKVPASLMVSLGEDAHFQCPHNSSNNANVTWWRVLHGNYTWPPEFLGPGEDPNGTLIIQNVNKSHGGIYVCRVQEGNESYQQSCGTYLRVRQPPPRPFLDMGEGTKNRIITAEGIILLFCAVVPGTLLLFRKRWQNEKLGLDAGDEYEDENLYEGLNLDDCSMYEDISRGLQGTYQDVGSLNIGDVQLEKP
pre-B cell receptor (pre-BCR) on the surface of live BCP-ALL cells, sequence (P40259 29-229): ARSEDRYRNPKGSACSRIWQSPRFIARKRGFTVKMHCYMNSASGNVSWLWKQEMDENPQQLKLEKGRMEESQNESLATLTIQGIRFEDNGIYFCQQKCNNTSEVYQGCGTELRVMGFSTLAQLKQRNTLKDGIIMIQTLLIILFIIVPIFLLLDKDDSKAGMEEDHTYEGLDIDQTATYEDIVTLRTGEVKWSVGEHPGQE

pre-B cell receptor (pre-BCR) on the surface of live BCP-ALL cells (from UniProt P15814 38-213; P11912 33-226; P40259 29-229)
homo-interaction lifetime: < 3 s
